Data as given in IntAct's records for PubMed 17006543.

B1: Beta-adrenergic receptor kinase 1 (Homo sapiens), P25098 (parent)
chain: MADLEAVLADVSYLMAMEKSKATPAARASKKILLPEPSIRSVMQKYLEDRGEVTFEKIFSQKLGYLLFRDFCLNHLEEARPLVEFYEEIKKYEKLETEEERVARSREIFDSYIMKELLACSHPFSKSATEHVQGHLGKKQVPPDLFQPYIEEICQNLRGDVFQKFIESDKFTRFCQWKNVELNIHLTMNDFSVHRIIGRGGFGEVYGCRKADTGKMYAMKCLDKKRIKMKQGETLALNERIMLSLVSTGDCPFIVCMSYAFHTPDKLSFILDLMNGGDLHYHLSQHGVFSEADMRFYAAEIILGLEHMHNRFVVYRDLKPANILLDEHGHVRISDLGLACDFSKKKPHASVGTHGYMAPEVLQKGVAYDSSADWFSLGCMLFKLLRGHSPFRQHKTKDKHEIDRMTLTMAVELPDSFSPELRSLLEGLLQRDVNRRLGCLGRGAQEVKESPFFRSLDWQMVFLQKYPPPLIPPRGEVNAADAFDIGSFDEEDTKGIKLLDSDQELYRNFPLTISERWQQEVAETVFDTINAETDRLEARKKAKNKQLGHEEDYALGKDCIMHGYMSKMGNPFLTQWQRRYFYLFPNRLEWRGEGEAPQSLLTMEEIQSVEETQIKERKCLLLKIRGGKQFILQCDSDPELVQWKKELRDAYREAQQLVQRVPKMKNKPRSPVVELSKVPLVQRGSANGL

Variants of: B1
Details: with ubc_human UBC

Row | Variant | effect of a mutation on the interaction
1 | K30R | decreasing interaction
2 | K19R | decreasing interaction
3 | K31R | decreasing interaction
